± gives the uncertainty stated by the source.
Test: self-splicing fitness, log relative to wild type (ln ratio); higher = more splicing; Tetrahymena group I intron in knt gene, E. coli kanamycin selection, DiMSum; sequences stand for … in CUCUCU…GGAGGGAAAAGUUAUCAGGCAUGCACCUGGUAGCUAGUCUUUAAACCAAUAGAUUGCAUCGGUUUAAAAGGCAAGACCGUCAAAUUGCGGGAAAGGGGUCAACAGCCGUUCAGUACCAAGUCUCAGGGGAAACUUUGAGAUGGCCUUGCAAAGGGUAUGGUAAUAAGCUGACGGACAUGGUCCUAACCACGCAGCCAAGUCCUAAGUCAACAGAUCUUCUGUUGAUAUGGAUGCAGUUCACAGACUAAAUGUCGGUCGGGGAAGAUGUAUUCUUCUCAUAAGAUAUAGUCGGACCUCUCCUUAAUGGGAGCUAGCGGAUGAAGUGAUGCAACACUGGAGCCGCUGGGAACUAAUUUGUAUGCGAAAGUAUAUUGAUUAGUUUUGGAGUACUCGUGGUCG
Outline: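 A randomised library covering all eight P1ex-region intron nucleotides was built with the intron in the knt kanamycin-resistance gene on pET-22b(+) and held in E. coli BL21(DE3). Cells were grown overnight at 37°C or 30°C on LB agar, with or without 25 μg/mL kanamycin, plus 100 μg/mL carbenicillin, 50 μM IPTG and 0.2% rhamnose, and pooled colonies were amplicon-sequenced on an Illumina HiSeq 2500. DiMSum fitness is the error-weighted combination of wild-type-normalised replicate fold changes, kanamycin versus none.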

Sequence	self-splicing fitness (ln) (30 °C)	self-splicing fitness (ln) (37 °C)
ACCAAGCAAUAUUACGCCAC	-1.48 ± 0.31	-2.12 ± 0.3
ACCAAGCAAUAUUACGCGCU	-0.723 ± 0.07	0.206 ± 0.089
ACCAAGCAAUAUUACGCUAA	-3.3 ± 0.16	-2.33 ± 0.14
ACCAAGCAAUAUUACGCUCC	-1.35 ± 0.17	-0.621 ± 0.25
ACCAAGCAAUAUUACGGAAA	-3.14 ± 0.18	-1.9 ± 0.13
ACCAAGCAAUAUUACGGCUA	-0.574 ± 0.065	-0.0302 ± 0.07
ACCAAGCAAUAUUACGGUAU	-3.45 ± 0.13	-0.475 ± 0.094
ACCAAGCAAUAUUACGUGAC	-3.55 ± 0.13	-1.99 ± 0.11
ACCAAGCAAUAUUACGUGCU	-1.7 ± 0.096	-0.864 ± 0.096
ACCCAGCAAUAUUACGAAAC	-2.77 ± 0.12	-1.04 ± 0.15
ACCCAGCAAUAUUACGAAAU	-1.42 ± 0.07	-1.21 ± 0.083
ACCCAGCAAUAUUACGAAGA	-1.74 ± 0.12	-1.36 ± 0.15
ACCCAGCAAUAUUACGAAGC	-0.907 ± 0.069	-0.523 ± 0.072
ACCCAGCAAUAUUACGACGG	-1.39 ± 0.078	-0.9 ± 0.086
ACCCAGCAAUAUUACGAGGG	-3.43 ± 0.15	-2.47 ± 0.17
ACCCAGCAAUAUUACGCACU	-0.41 ± 0.064	0.0872 ± 0.077
ACCCAGCAAUAUUACGCAGU	-0.609 ± 0.055	-0.106 ± 0.066
ACCCAGCAAUAUUACGCAUC	-1.33 ± 0.076	0.0782 ± 0.098
ACCCAGCAAUAUUACGCGUG	-3.53 ± 0.17	-1.9 ± 0.13
ACCCAGCAAUAUUACGCUAC	-4.01 ± 0.27	-2.38 ± 0.19
ACCCAGCAAUAUUACGCUCC	-0.481 ± 0.099	-0.338 ± 0.14
ACCCAGCAAUAUUACGCUUU	-0.704 ± 0.049	0.0854 ± 0.064
ACCCAGCAAUAUUACGGACC	-0.974 ± 0.073	-0.347 ± 0.089

From the supplement of paper PMC7877785
